Measurements as given in patent publication US7341836B2, “Modified cyclic nucleotide gated ion channels” (The Regents of the University of Colorado, priority 2001, dated 2008).
Values joined by “and” are separate entries in the source; they are usually repeats but may differ in a detail not shown here. Equal entries are not always repeated.

B1: Δ61-90/C460W/E583M: modified rat olfactory cyclic nucleotide-gated ion channel containing the Δ61-90/C460W/E583M mutation, SEQ ID NO:7 (protein, listed as Rattus norvegicus)
chain: MMTEKSNGVKSSPANNHNHHPPPSIKANGKDDHRAGSRPQSVAADDDTSPELQRLAEMDTPRPDSFLERFRGPELQTVTTHQGDDKGGKDGEGKGTKKKFELFVLDPAGDWYYRWLFVIAMPVLYNWCLLVARACFSDLQRNYFVVWLVLDYFSDTVYIADLIIRLRTGFLEQGLLVKDPKKLRDNYIHTLQFKLDVASIIPTDLIYFAVGIHSPEVRFNRLLHFARMFEFFDRTETRTSYPNIFRISNLVLYILVIIHWNACIYYVISKSIGFGVDTWVYPNITDPEYGYLAREYIYCLYWSTLTLTTIGETPPPVKDEEYLFVIFDFLIGVLIFATIVGNVGSMISNMNATRAEFQAKIDAVKHYMQFRKVSKDMEAKVIKWFDYLWTNKKTVDEREVLKNLPAKLRAEIAINVHLSTLKKVRIFQDWEAGLLVELVLKLRPQVFSPGDYICRKGDIGKEMYIIKEGKLAVVADDGVTQYALLSAGSCFGEISILNIKGSKMGNRRTANIRSLGYSDLFCLSKDDLMEAVTEYPDAKKVLEERGREILMKMGLLDENEVAASMEVDVQEKLEQLETNMDTLYTRFARLLAEYTGAQQKLKQRITVLETKMKQNHEDDYLSDGINTPEPTAAE

How the values were obtained:
[1] = tested on: PDE activity in GH4C1 cells; experiment: Effect of PDE inhibitors, forskolin and VIP on cAMP levels (Ca2+ influx through CNG channels); assay type: cell-based, rat; settings: basal cAMP; C460W/E583M channels; inhibitor concentration (μM)
Protocol: To further test the utility of this approach, PDE activity in excitable GH4C1 pituitary cells was examined. In all of the experiments shown (See, FIGS. 13-14, and Table 2), 1 μM nimodipine was added at time zero to block Ca^2+ influx though voltage-gated Ca^2+ channels (triggered by membrane depolarization due to Ca^2+ and Na^+ influx through CNG channels). […] FIGS. 13 and 14 each depict experiments done on a single batch of cells. As before, similar results were obtained on three other batches. In the experiments that produced the data shown in Table 2, cAMP concentrations were monitored using Ca^2+ influx through C460W/E583M channels. […] Either 100 μM IBMX or vehicle (-IBMX; control) were added at time zero. Then, 50 μM forskolin were added at 180 seconds d(ΔF/F0)/dt, which is proportional to the Ca^2+ influx rate, was estimated as described in the Examples. Data are provided as mean±standard error. IBMX or vehicle was added at 60 seconds (first arrow in FIG. 13). Either 10 μM forskolin or 100 nM VIP were added at 240 seconds (second arrow in FIG. 13). In the absence of IBMX, large forskolin or VIP-induced increases in Ca^2+ influx were observed. […] This level of basal AC activity was quite different from that observed in HEK-293 cells (See, FIGS. 9 and 10). 1 μM nimodipine was added at time 0 to block endogenous voltage-gated Ca^2+ channels.
To identify the PDE family or families that regulate the local cAMP concentration in GH4C1 cells, cAMP accumulation was monitored in the presence and absence of PDE inhibitors (See, Table 2). Again, the high cAMP affinity C460W/E583M channels were used. PDE inhibitors were added at 60 s. Although the addition of IBMX alone triggered Ca^2+ influx, 10 μM forskolin were added at 240 s as a positive control for CNG channel activity. […] This PDE is likely to have a low Km for cAMP because it is capable of regulating cAMP at concentrations too low for the WT or Δ61-90/C460W/E583M channels to detect. Thus, it is contemplated that a Ca^2+-CaM stimulated PDE (type I) is primarily responsible for controlling basal cAMP signals in GH4C1 cells.
In addition, PDE activity was monitored using Δ61-90/C460W/E583M channels to detect changes in cAMP concentration (See, FIG. 14). PDE inhibitors and forskolin were added as described above. With this construct, it was not possible to observe changes in cAMP concentration due to inhibition of PDE activity alone. […] Inhibitors specific to other PDE types had no effect on the forskolin-induced Ca^2+ influx (data not shown). […] It is contemplated that Ca^2+ influx through the C460W/E583M channels was saturated at cAMP concentrations below the Km for this PDE. Thus, it is contemplated that there are two different PDE types that regulate local cAMP signals in GH4C1 cells: a low Km, 8-methoxymethyl-IBMX sensitive PDE (type I); and a high Km, RO-20-1724-, rolipram-sensitive PDE (type IV).
GH4C1 rat pituitary cells (ATCC) were maintained in 13 mL Ham's F-10 medium (Life Technologies) supplemented with 14.3 mM NaHCO3, 15% donor horse serum (Gemini), and 2.5% fetal bovine serum, pH 6.8, in 75 cm^2 flasks at 37° C. in a humidified atmosphere of 95% air and 5% CO2. Cells were split weekly (1:4) and washed with fresh medium twice weekly. Cells were plated at ˜60% confluence in 100 mm culture dishes twenty-four hours prior to infection with the CNG-channel-encoding adenovirus constructs (multiplicity of infection=50 plaque forming units per cell). Forty-eight hours post-infection cells were detached, resuspended in serum-containing medium, and assayed within 12 hours.
In this Example, experiments conducted to examine the response of excitable GH4C1 pituitary cells to stimulation by either forskolin or the hormone vasoactive intestinal peptide (VIP), in the presence of absence of PDE inhibitors are described. […]

[2] = tested on: PDE III; settings: cited from earlier work
[3] = molecular target: T1, PDE II (Homo sapiens, UniProt O00408); settings: read-out: IC50, PDE II; cited from earlier work
T1 construct: host or cells: heterologously expressed human PDE; human heart
T1 sequence (O00408 whole entry): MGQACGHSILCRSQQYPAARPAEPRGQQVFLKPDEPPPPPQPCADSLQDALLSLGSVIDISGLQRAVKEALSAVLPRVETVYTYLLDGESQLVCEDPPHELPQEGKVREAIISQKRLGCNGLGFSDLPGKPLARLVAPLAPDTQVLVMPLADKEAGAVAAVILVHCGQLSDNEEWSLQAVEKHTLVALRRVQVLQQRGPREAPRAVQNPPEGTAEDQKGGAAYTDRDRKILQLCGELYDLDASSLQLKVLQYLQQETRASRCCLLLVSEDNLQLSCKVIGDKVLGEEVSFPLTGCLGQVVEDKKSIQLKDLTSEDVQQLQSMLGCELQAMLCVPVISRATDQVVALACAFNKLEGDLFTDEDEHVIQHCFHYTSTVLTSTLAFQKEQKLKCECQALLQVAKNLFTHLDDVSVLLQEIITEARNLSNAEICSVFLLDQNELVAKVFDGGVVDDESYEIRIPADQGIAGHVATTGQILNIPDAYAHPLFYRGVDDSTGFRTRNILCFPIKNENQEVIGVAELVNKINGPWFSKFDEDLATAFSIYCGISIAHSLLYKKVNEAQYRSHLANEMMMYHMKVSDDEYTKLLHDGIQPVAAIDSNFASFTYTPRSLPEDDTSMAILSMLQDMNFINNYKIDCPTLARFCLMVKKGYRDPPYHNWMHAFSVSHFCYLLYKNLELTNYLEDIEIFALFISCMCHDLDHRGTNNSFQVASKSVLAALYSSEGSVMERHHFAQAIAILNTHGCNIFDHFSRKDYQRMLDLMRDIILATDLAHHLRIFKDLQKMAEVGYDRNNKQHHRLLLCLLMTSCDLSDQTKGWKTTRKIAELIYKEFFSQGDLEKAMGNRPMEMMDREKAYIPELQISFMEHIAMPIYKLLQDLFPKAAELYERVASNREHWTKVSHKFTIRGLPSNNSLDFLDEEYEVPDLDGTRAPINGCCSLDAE

[4] = tested on: HEK-293 cells expressing CNG channels; experiment: Forskolin-induced cAMP accumulation monitored by Ca2+ influx (fura-2) through expressed CNG channels; assay type: cell-based, human; settings: 100 μM IBMX; forskolin 0-50 μM
Protocol: Next, experiments were conducted to assess the ability of each channel construct to detect increases in local cAMP concentration. Changes in cAMP concentration were detected using fura-2 to monitor Ca^2+ influx through CNG channels, as described in the Examples. Ca^2+ influx induced by different concentrations of forskolin, an AC activator, in the presence of 100 μM IBMX, a nonselective PDE inhibitor was measured. This approach allowed comparisons to be made between the cAMP sensitivities of the different channels to changes in cAMP, regardless of variations in expression levels between experiments. In HEK-293 cells expressing the WT channel, addition of forskolin was followed by a brief delay and an increase in Ca^2+ influx (See, FIG. 7, Panel A). The delay decreased and the rate of Ca^2+ influx increased in a dose-dependent manner. Neither effect was saturated at 50 μM forskolin. In cells expressing the E583M channel, addition of forskolin was also followed by a brief delay and an increase in Ca^2+ influx (FIG. 7, Panel B). As with the WT channel, the delay and the initial rate of Ca^2+ influx were dose-dependent. […] In cells expressing the Δ61-90/C460W/E583M channel, addition of forskolin caused similar increases in Ca^2+ influx as the E583M channel, including saturation of the delay and rate of influx at 20 μM (compare FIG. 7, Panel B with FIG. 7, Panel D). The increased response of the modified channels to forskolin treatment is consistent with the apparent cAMP affinities measured in excised patches in the absence of Ca^2+-CaM (C460W/E583M>E583M˜Δ61-90/C460W/E583>WT channels). There are several factors that may have contributed to the apparent lack of a Ca^2+-CaM effect on the channels.
Briefly, HEK-293 were maintained in MEM (Life Technologies Inc.) supplemented with 26.2 mM NaHCO3, 10% (v/v) fetal bovine serum (Gemini), penicillin (50 μg/mL), and streptomycin ([…]), pH 7.0, at 37° C. in a humidified atmosphere of 95% air and 5% CO2. Cells were plated at ˜60% confluence in 100 mm culture dishes twenty-four hours prior to infection with the CNG-channel-encoding adenovirus constructs (multiplicity of infection=10 plaque forming units per cell). […] Twenty-four hours post-infection cells were detached with phosphate-buffered saline containing 0.03% EDTA, resuspended in serum-containing medium, and assayed within 12 hours.

[5] = tested on: rat olfactory CNG channel α subunit; experiment: Excised inside-out patch recordings, cyclic nucleotide dose-response of CNG channel constructs; assay type: biochemical; settings: for Imax^cGMP/Imax^cAMP: current at saturating cGMP divided by current at saturating cAMP
Protocol: As described in greater detail herein, the effects of modifications to CNG channels were assessed using the Hill equation, I/Imax=[cNMP]^N/([cNMP]^N+K1/2^N), where I/Imax is the fraction of maximal current, cNMP represents cyclic nucleotide, K1/2 is the concentration that gives half-maximal current, and N is the Hill coefficient, an index of cooperativity. I/Imax^cGMP/Imax^cAMP is the current induced by saturating cGMP divided by the current induced by saturating cAMP. Data (mean±standard deviation of three experiments) were obtained from excised membrane patches using standard patch clamp techniques.
To assess the cyclic nucleotide sensitivity of different CNG channel constructs, excised, inside-out patch recordings were made at room temperature (20-21° C.) using an Axopatch-200A patch clamp amplifier (Axon Instruments Inc.). Pipettes were pulled from borosilicate glass and heat polished. Pipettes were lowered onto the cells and gigaohm seals were formed. Patches were excised by shearing cells from the pipette with a jet of liquid. Ionic currents were elicited by 250 ms pulses to membrane potentials of +50 and −50 mV from a holding potential of 0 mV. Current records were sampled at five times the filter setting and stored on an IBM compatible computer. Records were corrected for errors due to series resistance (pipette resistance was 4.1 ±0.1 MΩ). Both the pipette and bath solutions contained (mM): 130 NaCl, 2 HEPES, 0.02 EDTA, and 1 EGTA, pH 7.6. Cyclic nucleotide-induced currents were obtained from the difference between currents in the presence and absence of cyclic nucleotides. Dose response curves for cAMP and cGMP were obtained at +50 and −50 mV in the same patch. The effects of the modifications were assessed using the Hill equation, I/Imax=[cNMP]^N/([cNMP]^N+K1/2^N), where I/Imax is the fraction of maximal current, cNMP represents cyclic nucleotide, K1/2 is the concentration that gives half-maximal current, and N is the Hill coefficient, an index of cooperativity. K1/2 and N for cAMP were 36±5 μM, 10±2 μM, 1.0±0.3 μM, and […] for WT, E583M, C460/E583M, and Δ61-90/C460W/E583M channels, respectively (See, Rich et al., J. Gen. Physiol. [2001], supra).
The cyclic nucleotide sensitivity of the C460W/E583M CNG channel was assessed in excised, inside-out patches as known in the art (See, Rich et al. [2001], supra). K1/2 and N were 1.1±0.3 μM and 2.1±0.4 at +50 mV; and 1.0±0.3 μM and 2.0 ±0.3 at −50 mV (n=11). With these values, the cAMP concentration could be calculated from currents measured in perforated patch experiments (Rich et al. Proc. Natl. Acad. Sci. [2001], supra).

| Molecule | d(ΔF/F0)/dt [1] [s⁻¹] | IC50 [2] [nM] | IC50 [3] [nM] | forskolin concentration at which delay and rate of Ca2+ influx saturated [4] [µM] | Imax^cGMP/Imax^cAMP ([5]; +50 mV) | Imax^cGMP/Imax^cAMP ([5]; −50 mV) | current elicited by saturating cGMP as % of the current elicited by saturating cAMP ([5]; excised patches) |
| --- | --- | --- | --- | --- | --- | --- | --- |
| COc1cc2c(cc1OC)-c1c/c(=N\c3c(C)cc(C)cc3C)n(C)c(=O)n1CC2 [Trequinsin] | 0 | 0.3 | 500 to 2000 | – | – | – | – |
| B1 | – | – | – | 20 | 0.16 ± 0.08 | 0.09 ± 0.06 | 16% and < 20% |
